T1: SpoIVA, adenylate cyclase T18/T25 hybrid (Bacillus subtilis, UniProt P35149 1-492)
T1 construct: SpoIVA, basement layer coat morphogenetic protein (ATPase) of Bacillus subtilis; gene amplified from genomic DNA; also called T25-SpoIVA; T18-SpoIVA; source: bacterial two-hybrid fusion, E. coli BTH101; not shown: T18 or T25 domain of adenylate cyclase, N-terminal or C-terminal (by the plasmid combination), kept
T1 sequence (looked up): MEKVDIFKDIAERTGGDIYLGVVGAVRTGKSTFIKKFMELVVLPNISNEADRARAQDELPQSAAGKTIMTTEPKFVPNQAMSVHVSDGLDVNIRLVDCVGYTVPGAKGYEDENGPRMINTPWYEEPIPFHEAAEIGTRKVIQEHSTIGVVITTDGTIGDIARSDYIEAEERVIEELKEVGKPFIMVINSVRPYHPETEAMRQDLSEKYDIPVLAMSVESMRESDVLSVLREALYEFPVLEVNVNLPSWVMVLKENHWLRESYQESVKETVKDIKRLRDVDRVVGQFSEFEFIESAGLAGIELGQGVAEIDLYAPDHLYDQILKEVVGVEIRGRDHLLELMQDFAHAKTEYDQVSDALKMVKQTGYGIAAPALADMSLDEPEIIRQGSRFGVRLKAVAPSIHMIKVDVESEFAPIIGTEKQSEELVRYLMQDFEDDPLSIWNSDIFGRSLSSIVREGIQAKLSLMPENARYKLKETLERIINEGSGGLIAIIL

B1: YncD (spore alanine racemase), adenylate cyclase T18/T25 hybrid (natural protein, Bacillus subtilis, UniProt P94494 1-394, looked up)
chain: MIKLCREVWIEVNLDAVKKNLRAIRRHIPHKSKIMAVVKANGYGHGSIEVARHALEHGASELAVASVEEGIVLRKAGITAPILVLGFTSLSCVKKSAAWNITLSAFQVDWMKEANEILEKEASANRLAIHINVDTGMGRLGVRTKEELLEVVKALKASKFLRWTGIFTHFSTADEPDTTLTKLQHEKFISFLSFLKKQGIELPTVHMCNTAAAIAFPEFSADMIRLGIGLYGLYPSAYIKQLNLVKLEPALSLKARIAYVKTMRTEPRTVSYGATYIAEPNEVIATLPIGYADGYSRALSNRGFVLHRGKRVPVAGRVTMDMIMVSLGENGEGKQGDEVVIYGKQKGAEISVDEVAEMLNTINYEVVSTLSRRIPRFYIRDGEIFKVSTPVLYV
notes: YncD, spore alanine racemase of Bacillus subtilis; gene amplified from genomic DNA of strain PY79; Cloned into pUT18, pUT18C, pKT25 and pKNT25; also called T18-YncD; YncD-T18; source: bacterial two-hybrid fusion, E. coli BTH101; not shown: T18 or T25 domain of adenylate cyclase, N-terminal or C-terminal (by the plasmid combination), kept
B2: SpoVE, adenylate cyclase T18/T25 hybrid (natural protein, Bacillus subtilis, UniProt P07373 1-366, looked up)
chain: MTTKKTSPDLLLVIITLLLLTIGLIMVYSASAVWADYKFDDSFFFAKRQLLFAGIGVIAMFFIMNVDYWTWRTWSKLLMVICFFLLVLVLIPGVGMVRNGSRSWIGVGAFSIQPSEFMKLAMIAFLAKFLSEKQKNITSFRRGFVPALGIVFSAFLIIMCQPDLGTGTVMVGTCIVMIFVAGARIAHFVFLGLIGLSGFVGLVLSAPYRIKRITSYLNPWEDPLGSGFQIIQSLYAVGPGGLFGMGLGQSRQKFFYLPEPQTDFIFAILSEELGFIGGTLILLLFSVLLWRGIRIALGAPDLYGSFVAVGIISMIAIQVMINIGVVTGLIPVTGITLPFLSYGGSSLTLMLMAVGVLLNVSRYSRY
notes: SpoVE, SEDS family membrane protein essential for cortex synthesis, Bacillus subtilis; gene amplified from genomic DNA; also called SpoVE–T18; T25–SpoVE; source: bacterial two-hybrid fusion, E. coli BTH101; not shown: T18 or T25 domain of adenylate cyclase, N-terminal or C-terminal (by the plasmid combination), kept
B3: CotE, adenylate cyclase T18/T25 hybrid (natural protein, Bacillus subtilis, UniProt P14016 1-181, looked up)
chain: MSEYREIITKAVVAKGRKFTQCTNTISPEKKPSSILGGWIINHKYDAEKIGKTVEIEGYYDINVWYSYADNTKTEVVTERVKYVDVIKLRYRDNNYLDDEHEVIAKVLQQPNCLEVTISPNGNKIVVQAEREFLAEVVGETKVVVEVNPDWEEDDEEDWEDELDEELEDINPEFLVGDPEE
notes: CotE, spore coat morphogenetic protein of Bacillus subtilis; gene amplified from genomic DNA; also called CotE-T25; T25-CotE; source: bacterial two-hybrid fusion, E. coli BTH101; not shown: T18 or T25 domain of adenylate cyclase, N-terminal or C-terminal (by the plasmid combination), kept
B4: YheD, adenylate cyclase T18/T25 hybrid (natural protein, Bacillus subtilis, UniProt O07545 1-453, looked up)
chain: MNPKRFLIGIDKTSENTLFLPSSLKQDGLLHAAFGTKVVRCHVAYRRHLEQTVLLSENLFHELLLPHRSRADILIHDHTVHIGPLVGIFTAGFTVSLERPFKDRSLFFSKLVTLHEQAGGYCFVFGAHQINWEEGTIEGLLYRENGWEKKIVPLPNVVYDRLPNRKIEDSLLLQHTKKRLIDEYQIPWFNKTFFNKWNVHQLLEKDPRTAPFLPRSELTPSVELIDELCGAYKKVYIKPANGALGTGIYQLTRTDGGLTVKHTNDAKTFTSIDYSDAASFLAEFQKHHNPSDFLIQQGVDLIEFQGKPADFRVHTNKNRKGKWTVTAIAVKISGKNSITTHLSNGGTVKTLAEVYDDPAERVEVIKKLSAAALTASHVLHDHIEGFIGEIGFDFGIDQNGKVWMFEANSRPGRSIFSHPNLHHVDSLTKRRSFEYASYLSEKAITSPEALWPS
notes: YheD, spore coat protein of unknown function of Bacillus subtilis; gene amplified from genomic DNA; also called T25–YheD; YheD–T18; source: bacterial two-hybrid fusion, E. coli BTH101; not shown: T18 or T25 domain of adenylate cyclase, N-terminal or C-terminal (by the plasmid combination), kept
B5: YhaX, adenylate cyclase T18/T25 hybrid (natural protein, Bacillus subtilis, UniProt O07539 1-288, looked up)
chain: MSKQLLALNIDGALLRSNGKIHQATKDAIEYVKKKGIYVTLVTNRHFRSAQKIAKSLKLDAKLITHSGAYIAEKIDAPFFEKRISDDHTFNIVQVLESYQCNIRLLHEKYSIGNKKKVNSNLLGKALIHPSDPIFYPVQFVESLSDLLMDEPVSAPVIEVYTEHDIQHDITETITKAFPAVDVIRVNDEKLNIVPKGVSKEAGLALVASELGLSMDDVVAIGHQYDDLPMIELAGLGVAMGNAVPEIKRKADWVTRSNDEQGVAYMMKEYFRMQQRKGFLDKFHMKRV
notes: YhaX, spore coat protein of unknown function of Bacillus subtilis; gene amplified from genomic DNA; also called T25–YhaX; YhaX–T18; source: bacterial two-hybrid fusion, E. coli BTH101; not shown: T18 or T25 domain of adenylate cyclase, N-terminal or C-terminal (by the plasmid combination), kept
B6: SpoVD, adenylate cyclase T18/T25 hybrid (natural protein, Bacillus subtilis, UniProt Q03524 1-646, looked up)
chain: MRVSNVTVRKRLLFVLLFGVIVFLIIDTRLGYVQFVMGEKLTSLAKDSWSRNLPFEPERGEILDRNGVKLATNKSAPTVFVVPRQVQNPMKTSKQLAAVLNMSEEKVYKHVTKKASIEKITPEGRKISNEKAKEIKALDLKGVYVAEDSIRHYPFGSFLSHVLGFAGIDNQGLLGLEAYYDDDLKGEKGSVKFYTDAKGKKMPDEADDYTPPKDGLDMKLTVDSKVQTIMERELDNAEAKYHPDGMIAVAMNPKNGEILGMSSRPDFDPADYQSVDPSVYNRNLPVWSTYEPGSTFKIITLAAALEEQKVNLKRDQFYDKGHAEVDGARLRCWKRGGHGLQTYLEVVQNSCNPGFVELGERLGKEKLFKYIKDFGFGQKTGIDLQGEGTGILFPLERVGPVEQATTAFGQGVSVTPIQQVAAVSAAVNGGTLYTPYIAKEWIDPVTKKTVKKQSPIAKKQVISEETSKQIRYALESVVAEGTGRNAFVEGYRVGGKTGTAQKVKDGKYLENNHIVSFIGFAPADDPSLVVYVAVDNPKGTIQFGGTVAAPIVGNIMRDSLPELGVKPRKNQIEKKYQWNDTKTIEVPNVVGMSVSDLESLLVNLNVDASGKGSKIVKQSPAAGTKVKEGSKIRVYLTEEDEKEAAD
notes: gene amplified from genomic DNA; the positive combinations are N-terminal fusions; also called T18–SpoVD; T25–SpoVD; source: bacterial two-hybrid fusion, E. coli BTH101; not shown: T18 or T25 domain of adenylate cyclase, N-terminal, kept

Columns and labels:
Experiment in all cases: two-hybrid; bacterial two hybrid system (BACTH) based on adenylate cyclase T18/T25 fusions in E. coli BTH101; X-gal/IPTG indicator plates at 30 °C for 48 h; beta-galactosidase activity with ONPG in Miller units (Mu)
[1] = molecular target: B3; conditions: partners not purified
[2] = molecular target: T1, SpoIVA, adenylate cyclase T18/T25 hybrid; conditions: partners not purified
[3] = molecular target: the molecule itself
[4] = molecular target: T2, SpoVM, adenylate cyclase T18/T25 hybrid (Bacillus subtilis, UniProt P37817 1-26); conditions: partners not purified
T2 construct: SpoVM, small 26-amino-acid-long basement layer coat morphogenetic peptide of Bacillus subtilis; gene amplified from genomic DNA; also called T18–SpoVM; SpoVM–T18; source: bacterial two-hybrid fusion, E. coli BTH101; not shown: T18 or T25 domain of adenylate cyclase, N-terminal or C-terminal (by the plasmid combination), kept
T2 sequence (P37817 whole entry, the tested form may be a part): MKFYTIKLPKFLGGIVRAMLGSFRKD

Binder	beta-galactosidase activity (Miller units) [3]	further results
B1	220 Mu	beta-galactosidase activity (Miller units) [1]: 600 Mu; beta-galactosidase activity (Miller units) [2]: 160 Mu
B2	≤ 360 Mu	beta-galactosidase activity, fold of the negative control [4]: ~2 fold
B3	360 Mu	
B4	1720 Mu	
B5	704 Mu	
B6	240 Mu	beta-galactosidase activity (Miller units) [4]: 420 Mu

Reference: paper PMC7911427, “Interactions of Bacillus subtilis Basement Spore Coat Layer Proteins” (Microorganisms, 2021)
